How the values were obtained:
[1] = target: T1, HLA-A*0201 (Homo sapiens, UniProt P04439, D140Y/D185E/D98H/E176V/E277Q/G131W/G231S/I119V/I121R/I166T/I218V/L300P/L318F/N151K/N90K/P208A/P217A/Q86G/Q94H/R138H/R169H/T345S); test: Affinity of peptides to HLA-A*0201 on T2 cells (FACS, anti-HLA-A2); format: binding; settings: for binding affinity to HLA-A*0201 compared among peptides: Example 5; for concentration inducing 20% of expression of the HLA-A*0201: 100% = reference peptide HIV pol 589-597 at 100 μM; for Mean fluorescence intensity: 16 hours
T1 construct: the human tumoral cell T2 which expresses the HLA-A*0201 molecule, but which is TAP 1/2 negative; endogenous in cells; host or cells: T2 cells (human, TAP 1/2 negative)
Excerpt: The experimental protocol is similar to the one that was validated for peptides presented by the HLA-A*0201 (Tourdot et al., A general strategy to enhance immunogenicity of low-affinity HLA-A2.1-associated peptides: implication in the identification of cryptic tumor epitopes. Eur J Immunol. 2000 December; […]:3411-21). Affinity measurement of the peptides is achieved with the human tumoral cell T2 which expresses the HLA-A*0201 molecule, but which is TAP 1/2 negative and incapable of presenting endogenous peptides.
T2 cells (2.10^5 cells per well) were incubated with decreasing concentrations of peptides from 100 μM to 0.1 μM in a AIMV medium supplemented with 100 ng/μl of human β2m at 37° C. for 16 hours. Cells were then washed two times and marked with the anti-HLA-A2 antibody coupled to PE (clone BB7.2, BD Pharmagen).
The analysis was performed by FACS (Guava Easy Cyte). […] A2. Solubilisation of Peptides
The experimental protocol, materials and methods correspond to those outlined in Example 4, with the only difference that the above mentioned antigenic peptides were used.

[2] = system: β/A2/DR3 mice; test: ELISPOT-IFNγ on splenocytes of vaccinated mice; format: in vivo, mouse; settings: for percentage of ConA-induced response (mean+/−SEM): ELISPOT-IFNγ, vaccination 100 μg s.c. d0 and d14, spleen d21
Excerpt: Briefly, 14 β/A2/DR3 mice were assigned randomly (based on mouse sex and age) to two experimental groups, each immunized with a specific vaccination peptide (vacc-pAg) combined to a common helper peptide (h-pAg) (as outlined in Table 7 below). The vacc-pAg were compared in couples (group 1 vs. group 2). Thereby, both native and optimized versions of a single peptide were compared in each wave.
The animals were immunized on day o (do) with a prime injection, and on d14 with a boost injection. Each mouse was injected s.c. at tail base with 100 μL of an oil-based emulsion that contained: • 100 μg of vacc-pAg (25 μL of 4 mg/mL stock per mouse); • 150 μg of h-pAg (15 μL of 10 mg/mL stock per mouse); • 10 μL of PBS to reach a total volume of 50 μL (per mouse); • Incomplete Freund's Adjuvant (IFA) added at 1:1 (v:v) ratio (50 μL per mouse).
Seven days after the boost injection (i.e. on d21), the animals were euthanized and the spleen was harvested. Splenocytes were prepared by mechanical disruption of the organ followed by 70 μm-filtering and Ficoll density gradient purification.
The splenocytes were immediately used in an ELISPOT-IFNγ assay (Table 8). Experimental conditions were repeated in quadruplets, using 2*10^5 total splenocytes per well, and were cultured in presence of vacc-pAg (10 μM), Concanavalin A (ConA, 2.5 μg/mL) or medium-only to assess for their capacity to secrete IFNγ. The commercial ELISPOT-IFNγ kit (Diaclone Kit Mujrine IFNγ ELISpot) was used following the manufacturer's instructions, and the assay was performed after about 16 h of incubation.
Spots were counted on a Grand ImmunoSpot® S6 Ultimate UV Image Analyzer interfaced to the ImmunoSpot 5.4 software (CTL-Europe). Data plotting and statistical analysis were performed with the Prism-5 software (GraphPad Software Inc.).
The data were then normalized as a number of specific spots (the average counts obtained in the ‘medium only’ condition being subtracted) per 10^6 total T cells.
The individual average values (obtained from the quadruplicates) were next used to plot the group average values (see FIG. 3A). As the functional capacity of T cells might vary from individual to individual, the data were also expressed as the percentage of the ConA response per individual (see FIG. 3B).

[3] = system: U87-MG cells; test: In vitro cytotoxicity of CD3+ T cells from immunized mice against U87 cells; format: cell-based; settings: CD3+ T cells of mice immunized with the peptide; 72 hours co-culture; DAPI/annexin V cytometry
Description: Briefly, CD8 T cells from mice immunized with IL13RA2-H or […] were used. These cells were obtained after sorting of splenocyte from immunized mice and were placed on top of U87 cells (tumor cells expressing IL13RA2).
In more detail, CD3^+ T cells were purified from splenocytes of HHD mice immunized with IL13RA2-H ([…], SEQ ID NO: 1) or IL13RA2-B ([…], SEQ ID NO: 18). To this end, B6 β2 m^ko HHD/DR3 mice were injected s.c. at tail base with 100 μL of an oil-based emulsion containing vaccination peptide plus helper peptide plus CFA (complete Freund's adjuvant), at day 0 and day 14 as described in Example 5. On d21, i.e. seven days after the boost injection, the animals were euthanized and the spleen was harvested. Splenocytes were prepared by mechanical disruption of the organ. CD3+ purification was performed using the mouse total T cells isolation kit from Miltenyi biotec using the recommended procedure. […]
U87-MG cells were seeded at 6×10^5 cells/well in flat-bottomed 24-well culture plates and incubated for 24 h at 37° C. in DMEM (Dulbecco's Modified Eagle Medium) containing 10% of FCS (fetal calf serum) and antibiotics. […] 72 hours after co-culture of U87-MG cells and CD3+ T cells, all cells from the wells were harvested and specific U87-MG cell death was evaluated after immunostaining of CD45 negative cells with DAPI and fluorescent annexin V followed by cytometry analysis.

[4] = system: unresectable or metastatic melanoma; settings: patients; cited from earlier work
[5] = system: NSCLC; settings: patients; cited from earlier work
[6] = system: renal cell carcinoma (RCC); settings: patients; cited from earlier work
[7] = ex vivo re-stimulation with IL13RA2-B pAg 10 μM
[8] = ex vivo re-stimulation with IL13RA2-H pAg 10 μM

| binding to HLA-A*0201 [1] | concentration inducing 20% of expression of the HLA-A*0201 [1] [µM] | Mean fluorescence intensity ([1]; peptide at 0.1 μM) | Mean fluorescence intensity ([1]; peptide at 1 μM) | Mean fluorescence intensity ([1]; peptide at 10 μM) | Mean fluorescence intensity ([1]; peptide at 100 μM) | Substance | binding affinity to HLA-A*0201 compared among peptides [1] | percentage of ConA-induced response (mean+/−SEM) [2, 7] | percentage of ConA-induced response (mean+/−SEM) [2, 8] | U87 cell lysis [3] | also measured |
| --- | --- | --- | --- | --- | --- | --- | --- | --- | --- | --- | --- |
|  |  |  |  |  |  | 1A9V: SEQ ID NO: 1 with tryptophan at position 1 substituted by alanine and isoleucine at position 9 by valine (Eguchi et al., 2006) (ALPFGFILV; listed as Homo sapiens) | lowest affinity of the peptides tested |  |  |  |  |
| binds strongly | 4.4 | 9.9 | 12.18 | 40.77 | 112.05 | FLPFGFILV (sequence variant) [SEQ ID NO: 18] | considerably higher binding affinity to HLA-A*0201 than all other peptides tested | 56.3%+/−18.1 | 32.3%+/−11.8 | U87 cell lysis was observed | T cell responses in the ELISPOT-IFNγ assay ([2]; compared to IL13RA2-H-vaccinated animals): improved T cell responses; In vitro binding affinity ([1]; relative affinity = concentration inducing 20% of HLA-A*0201 expression / that of reference peptide HIV pol 589-597, lower = stronger): 0.49 |
|  |  |  |  |  |  | Ipilumumab: anti-CTLA-4 antibody |  |  |  |  | three-year survival rate [4]: around 20% |
|  |  |  |  |  |  | Nivolumab: check point inhibitor targeting PD1 |  |  |  |  | three-year survival rate [5]: 18%; three-year survival rate [6]: 44% |
| does not bind | 100 | 7.46 | 9.41 | 11.61 | 18.64 | WLPFGFILI (listed as Homo sapiens) [SEQ ID NO: 1] |  | 2.0%+/−0.8 | 1.1%+/−0.8 | not |  |

— patent US12364743B2, “Microbiota sequence variants of tumor-related antigenic epitopes” (ENTEROME S.A., priority 2016, dated 2025)
